From patent US20250179176A1, “ANTI-TIGIT ANTIBODIES AND USES OF THE SAME” (ARCUS BIOSCIENCES, INC., priority 2022, published 2025)
Entries after “also recorded” stand apart in the source; their conditions may differ.

Target: human FcγR1 (Homo sapiens, UniProt P12314)
Test: ELISA binding of domvanalimab to FcγR
Settings: up to 1 μM, vs human IgG1 control
Procedure: Antibody-dependent cell mediated cytotoxicity (ADCC) is mediated by the antibody Fc domain binding to a FcγR. […] Human IgG1 was used as a positive control and buffer containing no antibody was used as a negative control.
Briefly, ELISA plate coating solution was prepared by diluting human Fc-gamma receptors in PBS to a final concentration of 1 μg/mL (FcγR1) or 4 μg/mL (Fcγ R2A, 2B, 3A and 3B). 30 μL of coating solution was added to each well of the test plates, and the ELISA plates were then incubated overnight at 4° C. to facilitate receptor binding. The following day, ELISA plates were washed four times with 80 μL wash buffer (1×PBS+0.05% Tween-20) per well, prior to blocking with 80 μL blocking buffer (1×PBS+2% BSA) per well at room temperature for 2 hours.
Plates were then incubated for an hour prior to removal of well contents by aspiration followed by four washes with wash buffer. 30 μL of anti-human IgG HRP conjugate at 1:2500 dilution in antibody buffer was added to each of the washed wells. Plates were further incubated at room temperature for an additional 30 minutes. […] Luminescent signals were captured using an Envision Multimode Reader (Perkin Elmer) system approximately 10 minutes after substrate addition.

Sequence of human FcγR1 (P12314 16-374): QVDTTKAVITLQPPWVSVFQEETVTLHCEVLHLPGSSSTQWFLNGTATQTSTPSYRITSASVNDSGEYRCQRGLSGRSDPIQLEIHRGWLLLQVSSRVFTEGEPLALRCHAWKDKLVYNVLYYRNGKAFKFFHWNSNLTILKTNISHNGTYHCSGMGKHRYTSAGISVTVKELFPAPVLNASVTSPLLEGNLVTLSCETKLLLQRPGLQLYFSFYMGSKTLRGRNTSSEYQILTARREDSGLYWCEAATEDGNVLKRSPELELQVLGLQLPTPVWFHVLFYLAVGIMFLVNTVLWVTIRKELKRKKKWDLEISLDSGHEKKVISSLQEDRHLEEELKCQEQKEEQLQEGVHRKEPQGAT

B1: domvanalimab: anti-TIGIT antibody with engineered IgG1 Fc, reduced FcγR binding; heavy chain SEQ ID NO: 12, light chain SEQ ID NO: 13 (antibody)
heavy: EVQLVESGGGLVQPGGSLRLSCAASGFTFSNFGMHWVRQAPGKGLEWVAFISSGSSSIYYADTVKGRFTISRDNAKNSLYLQMNSLRAEDTAVYYCARMRLDYYAMDYWGQGTMVTVSSASTKGPSVFPLAPSSKSTSGGTAALGCLVKDYFPEPVTVSWNSGALTSGVHTFPAVLQSSGLYSLSSVVTVPSSSLGTQTYICNVNHKPSNTKVDKKVEPKSCDKTHTCPPCPAPEAAGGPSVFLFPPKPKDTLMISRTPEVTCWVDVSHEDPEVKFNWYVDGVEVHNAKTKPREEQYNSTYRWSVLTVLHQDWLNGKEYKCKVSNKALPAPIEKTISKAKGQPREPQVYTLPPSRDELTKNQVSLTCLVKGFYPSDIAVEWESNGQPENNYKTTPPVLDSDGSFFLYSKLTVDKSRWQQGNVFSCSVMHEALHNHYTQKSLSLSPGK
light: DIQMTQSPSSLSASVGDRVTITCRASKSISKYLAWYQQKPGKAPKLLIYSGSTLQSGVPSRFSGSGSGTDFTLTISSLQPEDFATYYCQQHNEYPWTFGGGTKVEIKRTVAAPSVFIFPPSDEQLKSGTASWCLLNNFYPREAKVQWKVDNALQSGNSQESVTEQDSKDSTYSLSSTLTLSKADYEKHKVYACEVTHQGLSSPVTKSFNRGEC
binding to human FcγR1: no significant binding; also recorded: does not bind
